Source: US6294153A, “Aerosol pharmaceutical formulation for pulmonary and nasal delivery” (Generex Pharmaceuticals, Inc., priority 1999, dated 2001)
Where two headings read alike, the source gives them in different places.

What was measured:
[1] = Method: The vials were then charged with a non-CFC tetrafluoroethane, (134a) propellant with the aid of a Pamasol 2008 semi-automatic gas filling equipment.
The aerodynamic particle size was determined by 8-stage USP Anderson Cascade Impactor-Mark-II (trade mark). The Multistage Cascade Impactor was cleaned with methanol and air-dried at 30° C. Glass fibre filters were placed on the collection plates. Seals were aligned properly and the actuator was attached to the mouthpiece and assembled onto the USP induction port and jet stages. A vacuum pump was connected and air flow rate is set to 28.3 liter/min. The vial was primed by shaking for 10 seconds and actuating twice to waste. […] […] The filters were carefully removed and placed in scintillation vials and sonicated for 15 minutes.

[2] = healthy volunteers; 10, 20, 30 units aerosol
Source text: Day-1: 5 puffs of 2 units each (total 10 units)
Day-2: 5 puffs of 4 units each (total 20 units)
Day-1: 5 puffs of 6 units each (total 30 units)

[3] = stage 3, U400, 4 units/actuation
[4] = stage 4, U400, 4 units/actuation
[5] = stage 5, U400, 4 units/actuation
[6] = stage 6, U400, 4 units/actuation
[7] = stage 7, U400, 4 units/actuation
[8] = stage 8, U400, 4 units/actuation

Substance: insulin
- size of most particles ([1]; cascade impactor, most particles): smaller than 6 microns
- particle size (conclusion) ([1]; cascade impactor, overall): about 3 microns
- droplet size, generally ([1]; cascade impactor, indicates deep lung deposition): smaller than 4 microns
- mg (insulin deposited) ([1]; stage 3, 2 units/actuation): 0.77 mg
- units (insulin deposited) ([1]; stage 3, 2 units/actuation): 10.1 units
- mg (insulin deposited) [1, 3]: 0.77 mg
- units (insulin deposited) [1, 3]: 20.1 units
- mg (insulin deposited) ([1]; stage 4, 2 units/actuation): 0.78 mg
- units (insulin deposited) ([1]; stage 4, 2 units/actuation): 10.1 units
- mg (insulin deposited) [1, 4]: 0.78 mg
- units (insulin deposited) [1, 4]: 20.1 units
- mg (insulin deposited) ([1]; stage 5, 2 units/actuation): 0.81 mg
- units (insulin deposited) ([1]; stage 5, 2 units/actuation): 10.0 units
- mg (insulin deposited) [1, 5]: 0.81 mg
- units (insulin deposited) [1, 5]: 20.0 units
- mg (insulin deposited) ([1]; stage 6, 2 units/actuation): 0.80 mg
- units (insulin deposited) ([1]; stage 6, 2 units/actuation): 10.3 units
- mg (insulin deposited) [1, 6]: 0.80 mg
- units (insulin deposited) [1, 6]: 20.3 units
- mg (insulin deposited) ([1]; stage 7, 2 units/actuation): 0.80 mg
- units (insulin deposited) ([1]; stage 7, 2 units/actuation): 10.1 units
- mg (insulin deposited) [1, 7]: 0.80 mg
- units (insulin deposited) [1, 7]: 20.1 units
- mg (insulin deposited) ([1]; stage 8, 2 units/actuation): 0.79 mg
- units (insulin deposited) ([1]; stage 8, 2 units/actuation): 10.1 units
- mg (insulin deposited) [1, 8]: 0.79 mg
- units (insulin deposited) [1, 8]: 20.1 units
- insulin deposition ([1]; stages 0-2): no insulin deposition
- absorption of insulin through lungs and oropharynx regions [2]: significant absorption
